Laboratory results reported in the nanobody polyreactivity screen of Harvey et al. (2022).

Assay: yeast display, Sf9 membrane polyspecificity reagent, FACS + sequencing; frameworks hold sequencing errors
Outline: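 Polyreactivity labels are assigned by the sorting gate from which each nanobody was recovered. The gates were low and high (top ~1%), set on anti-HA fluorescence for expression and streptavidin fluorescence for reagent binding. Before sorting, galactose-induced (36–48 hours) yeast display cells were stained for 1 hour at 4 °C with 10% biotinylated, detergent-solubilized Sf9 membrane reagent.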

Sequence | polyreactivity (PSR sort gate)
QVQLVESGGGLVQAGGSLRLSCAASGFTHDWYAMGWYRQAPGKERELVAAIWSAGTTYYADSVKGRFTISRDNAMNTVYLQMNSLKPEDPAVYYCATVSDYDFGLYDYWGQGTQVTVSS | low polyreactivity
QVQLVESGGGLVQAGGSLRLSCAASGGIFWVYAMGWYRQAPGKERELVAAISNSDTSTSYADSVKGRFTISRDNAKNTVYLQMNSLKPEDTAVYYCNADSPSLSGDYWGQGTQVTVSS | low polyreactivity
QVQLVESGGGLVQAGGSLRLSCAASGSTFSKYTMGWYRQAPGKERELVAAISRSGGRTYYADSVKGRFTISRDNAKNTVYLQMNSLKPEDTAVYYCATVVYVFGYSSPMYYWGQGTQVTVSS | high polyreactivity
QVQLVESGGGLVQAGGSLRLSCAASGFIFARNAMGWYRQAPGKERELVARITKRGGSTFYADSVKGRFTISRDNAKNTVYLQMNSLKPEDPAVYYCNADGYHGHVEGDYWGQGTQVTVSS | high polyreactivity
QVQLVESGGGLVQAGGSLRLSCAASGGIFVGYAMGWYRQAPGKERELVASIDGSDGSTFYADSVKGRFTISRDNAKNTVYLQMNSLKPVDTAVYYCNARATLLSPANTIRGYDYWGQGTQVTVSS | low polyreactivity
QVQLVESGGGLVQAGGSLRLSCAASGSIFTGYAMGWYRQAPGKERELVAAIRTRGGSTYYADSVKGRFTISRDNAKNTVYLQMNSLKPEDTAVYYCAKRYYGWYGNFDYWGQGTQVTVSS | high polyreactivity
QVQLVESGGGLVQAGGSLRLSCAASGFTFVYYVMGWYRQAPGKERELVAAINAGGGSTYYADSVKGRFTISRDNAKNTVYLQMNSLKPEDTAVYYCYARVRVRLGRNWSSYYYWGQGTQVNVSS | high polyreactivity
QVQLVESGGGLVQAGGSLRLSCAASGFTFVIYAMGWYRQAPGTERELVATITGSGGSTYYADSVKWRITISRDNAKNTVYLQMNSLKPEDTAVYYCAARRRYQRYSRYDYWGLGTQVTVSS | high polyreactivity
QVQLVESGGGLVQAGGSLRLSCAASGSTFAVNAMGWYRQAPGKERELVAVITSSGGRTYADSVKGRFTISRDNAKNTVYLQMNSLKPEDTAVYYCAAVQGKVRGGYYWGQGTQVTVSS | high polyreactivity
QVQLVESGGGLVQAGGSLRLSCAASGSTFTSYAMGWYRQAPGKERELVAAISKSGGSTNYADSVKGRFTISRDNAKNTVYLQMNSLKPEDTAVYYCAALGIGSYRRYSGYDYWGQGTQVTVSS | low polyreactivity
QVHLVESGGGLVQAGGSLRLSCAASGRTFPSYAMGWYRQAPGKERELVAAISSSGGSTYYADSVKGRFTISRDNAKNTVYLQMNSLKPEDTAVYYCAAATPSGYYYWGQGTQVTVSS | high polyreactivity
QVQLVESGGGLVQAGGSLRLSCAASGRIFRVYAMGWYRQAPGKERELVAAISSSGGSTYYADSVKGRFTISRDNAKNTVYLQMNSLKPEDTAVYYCAAGGLHTIQRPGYYYWGLGTQVTVSS | low polyreactivity
QGQLVESGGGLVQAGGSLRLSCAAYGSIYRNYAMGSYRQAPGKEREFVAAITTRGGRTYYADSVKGRFTISRDNAKNPVYLQINSLKPEDTAVYYCAARSYSEYNYWGQGTLVTVSS | high polyreactivity
QVQLVESGGGLVQAGGSLRLSCAASGSTFLNNAMGWYRQAPGKERELVATITSGGITNYADSVKGRFTISRDNEKNTVYLQMNSLKPEDTAVYYCNADTWGFTYYYWGQGTQVTVSS | low polyreactivity
QVQLVESVGGLVQAGGSLRLSCAASGTFSPYAMGWYRQAPGKERELVAVITSNTGRTYADSVKGRFTISRDNAKNSVYLQMNSLKPEDTAVYYCAARSTYRHWYRTGSRFDYWGQGTQVTVSS | low polyreactivity
QVQLVESGGGLVQAGGSLRLSCAASGSIILPNTMGWYRQAPGKERELVASISWNGGRTYYADSVKGRFTISRDNAKNTVYLQMNSLKPEDTAVYYCNADFRYPRVRYDYWGQGTQVTVSS | low polyreactivity
QVQLVESGGGLVQAGGSLRLSCAASGSIFHWYAMGWYRQAPGKERELVAAINWSGGSTYYADSVKGRFTISRDNAKNTVYLQMNSLKPEDTAVYYCNKAYVSRYDYWGQGTQVTVSS | high polyreactivity
QVQLVESGGGLVQAGGSLRLSCAASGRTFTSYAMGWYRQAPGKESELVAAIRRSGGSTYADSVKGRFTISRDNAKNTVYLQMNSLKPEDTAVYYCAAGHYWFTKGYHTLYDMDYWGQGTQVTVSS | high polyreactivity
QVQLVESGGGLVQAGGSLRLSCAASGNTFTWYTMGWYRQAPGKERELVAGITWSGGSTFYADSVKGRFTISRDNAKNTVYLQMNSLKPEDTAVYYCAVSTEVNRYHAKYDYWGQGTQVTVSS | low polyreactivity
QVQLVESGGGLVQAGGSLRLSCAASGSTFKRNAMGWYRQAPGKERELVATITRRGGSTYADSVKGRFTISRDNAKNTVYLQMNSLKPEDTAVYYCARDGFSAGMDYWGQGTQVTVSS | low polyreactivity
QVQLVESGGGLVQAGGSLRLSCAASGFIFPYNAMGWYRQAPGKERELVAVISSSGGDTYYADSVKGRFTISRDNAKNTVYLQMNSLKPEDTAVYYCAADSYYGYEYWGQGTQVTVSS | low polyreactivity
QVQLQESGGGLVQAGGSLRLSCAASGNIFLGDTMGWYRQAPGKEREFVAAIARGGNPYYADSVKGRFTISRNNANNTVYLQKNSLKTEDTAVHYCAVQRSHASDYNYWCQGTQVTVSS | low polyreactivity

Sequence | polyreactivity (PSR sort gate)
QVQLVESGGGLVQAGGSLRVSCAASGSIFRWYTMGCYRQAPGKEREFVADISWSGGRTYYADSVKGRFTISRDNASYSVYLQMNCLKPEDTAVYYCNAEHNTRYDYWGQGTQVSVSS | low polyreactivity
QVQLVESGGGLVQVGGSLRLSCAASGLTFYANAMGWYRQAPGKEREVVAAIRKRGGSTYYADSVKGRFTISRDNAKNTVYFQMNSLKPEDTAVYYGATYGGPFSVGTGFHDVRYDYWGHGTQVTVSS | low polyreactivity
QFQLVESGGGLVQAGGSLRLSCAASGRIFDVNAMGWSRQAPGKESELVAAISTRGGGTYYADSVKGRFTISRDNAKNTVYLQMTSLKPEDTAVYYCNVVRRYGGRGIDYWGQGTQVTVSS | low polyreactivity
QVQLVESGGGLVQAGGSLRLSCAASGSTFWHYAMGWYRQAPGKERELVASISGRGTSTYYADSVKGRFTLSRDNAKNTVYLQMNSLKPEDTAVYYCAATKWYRAFDYWGQGTQVTVSS | low polyreactivity
QVQLVESGGGLVQAGGSLRLSCAASGSIFSYYVMGWYRQAPGKERELVAAISWSGGSTYYADSVKGRFTISRDNSKNTVYLQMNSLKPEDTAVYYCAAGTYPYYWGQGTQVTVSS | low polyreactivity
QVQLVESGGGLVQAGGSLRLSCAASGSTFGGYAMGWYRQAPGKERELVAAISSGGSTYYADSVKGRFTISRDNAKNTVYLQMNSLKPEDTAVYYCAADTYAHWGYYGSYYRDDYWGQGTQVTVSS | low polyreactivity
QVQLVESGGGLVQAGGSLRLSCAASGNTIRSYAMGWYRPAPGKERELVAAISGRGGSTYYADSVKGRFTISRDNAKNTVYLEMNSLKPEDTAVNYCAAESRRVNYANDYWGQGTEVTVSS | high polyreactivity
QVQLVESGGGLVQAGGSLRLSCAASGGTFVGYTMGWYRQAPGKERELVAGIRTRSGSTSYADSVKGRFTISRDNAKNTVYLQMNSLKPEDTAVYYCAARPYGRYPYPEYYYWGQGTQVTVSS | high polyreactivity
QVQLVESGGGLVQAGGSLRLICAASGRTFYLYAMGWYRQAPGKERELVASITKSGGSTYYADSVKGRFTISRDNAKNTVYLQMNSLKPEDTAVYYCATDGRWRLAGAFTGKRRTYDYWGQGTQVTVSS | low polyreactivity
QVQLVESGGGLVQAGGSLRLSCAPSGIIFPEYDMGWYRQPPGKERELVAAITKSDGRTYYADSVKGRFTISRDNAKNSVYLQMNSLKPEDTAVYYCNADPSVVAYVGFVSWGQGTQVTLSS | low polyreactivity
QVQLVESGGGLVQAGGSLRLSCAASGSTLVGYAMGWYRQAPGKERELVAAISSSGTSTYYADSVKGRFSISRDNAKNTVYLQMNSLKPEDTAVYYCSARQRGTYGYWGQGTQVTVSS | high polyreactivity
QVQLVESGGGLVQAGGSLRLSCAASGRIFSHYAMGLYREAPGKERELVAAITGSGGITYYADSVKGRFTISRDKSKNTVFLQMISLKPEDTAVYYCAADGLSKFDYLGQGTQVTVSS | low polyreactivity
QVQLVESGGGLVQAGGSLRISSAASGNIFLYYAMGWYRQAPGKERELVAYIDSSGASTYYADSVKGRFTISRDNAKNTVYLQMNSLKPEDTAVYFCASDEGTVGGQQLRPLMDYWGQGTQVTVSS | low polyreactivity
QVQLVESGGGLVQAGGSLRLSCAASGNTFGPYDMGWYRQAPGKERELVAGITSGGSTYYADSVKGRFTISRDNAKNTVYLQMNSLKPEDTAVYYCAADYYLWVYWYDYWGQGTQVTVSS | high polyreactivity
QVQLVESGGCLVQAGGSLRLSCAASGSTLWGYAMGWYRQAPGKERELVAAITSSGGITYYADSVKGRFTISRDNAKNTVYFQMNSLKPEDTAVYFCAVDYYVVGWTYLYYYWGQGTQVTVSS | low polyreactivity
QGQLVESGGGLVQAGGSLRLSCAASGFTFTSNAMGWYRQAPGQERELVAVISTRGGSTFYADSGKGRFTISRDNAKNTVYLQMNSLKPEDTAVYYCAADSTDYRWTAYYWGQGTQVTVSS | high polyreactivity
QVQLVESGRGLVQAGGSLRLSCAASGRIFNLNAMGWYRQAPGKERELVAAITRGGRTIYADSVKGRFTISRDNAQNTVYLQMNSLKPEDTAVYYCAAAYYGSHGRYDYWGQGTQVTVSS | high polyreactivity
QVQLVESGGGLVQAGGSLRLSCAASGRTFPSYAKGLYRQAPGKERELVASISRGASTNYADSVMGRFTISRDNAKNCVFLQMNSLKPEDTAVYFWAANDSWVYTYYYWGQGTQVTVSS | high polyreactivity
QVQLVESGGGLVQAGGSLRLSCAASGGTFARYAMGWYRQAPGKERELVAAITRSGGTTYYADSVKGRFTISRDNAKNTVYLQMNSLKPEDTAVYYCAALPIVDYYGYGYWGQGTQVNVSS | high polyreactivity
QVQLVESGGGLVQAGGSLRLSCAASRSTFTGNAMGWYRQAPGNERELVASINGSSGSTYYADSVKGRFTISRDNAKNTVYLQMNSLKPEDTAVYYCAKDSFLHFPRVGWVGLEYWGQGTQVTVSS | low polyreactivity
HVQLVESGGGLVQEGGRLRLSCAASGFIFQVNAMGWYRQAPGKERELVAAITGSDGSTSYADSVKGRFTISRDNAKNNVYLQMNSLKPEDTAVYYCAKEESVSTHYYHLIRFDQWGQGTQVTVSS | low polyreactivity
